Data set [1] deals with the molecule itself. The data set can be described thus: crystal structure; LbTDC/PLP complex at a molar ratio of 1:4, 0.1 M sodium cacodylate trihydrate pH 7.0, 0.1 M MgCl2, 16% PEG 4000; space group P21.
Data set [2] deals with the molecule itself. The data set can be described thus: crystal structure; apo-LbTDC, sitting-drop vapor diffusion at 18 °C, 0.1 M sodium cacodylate trihydrate pH 7.5, 0.2 M MgCl2, 18% PEG 1000; space group P21.

B1: Lactobacillus brevis tyrosine decarboxylase in complex with PLP, holo form (enzyme, Lactobacillus brevis CGMCC 1.2028)
chain: MEKSNRSLKDLDLNALFIGDKAENGQLYKDLLNKLVDEHLGWRKNYIPSDPNMIGPEDQNSPAFKKTVGHMKTVLDQLSERIRTESVPWHSAGRYWGHMNSETLMPALLAYNYAMLWNGNNVAYESSPATSQMEEEVGQEFARLMGYDYGWGHIVADGSLANLEGLWYARNIKSLPFAMKEVNPELVAGKSDWELLNMPTKEIMDLLENAGSQIDEVKKRSARSGKNLQRLGKWLVPQTKHYSWMKAADIIGIGLDQVVPVPIDSNYRMDIQALESIIRKYAAEKTPILGVVGVAGSTEEGAVDGIDKIVALRQKLQKEGIYFYLHVDAAYGGYARALFLDEDDQFIPYKNLQKVHAENHVFTEDKEYIKPEVYAAYKAFDQAESITIDPHKMGYVPYSAGGIVIQDIRMRDTISYFATYVFEKGADIPALLGAYILEGSKAGATAASVWAAHHTLPLNVTGYGKLEGASIEGAHRYYDFLKNLKFEVAGKRISVHPLISPDFNMVDYVLKEDGNDDLIEMNRLNHAFYEQASYVKGSLYGKEYIVSHTDFAIPDYGDSPLAFVESLGFSEVEWRHAGKVTIIRASVMTPYMNQRENFDYFAPRIKKAIQADLEKVYASVNQKENV
modifications: PLP covalently attached to the ε-amino group of K392 (internal aldimine, Schiff base)
notes: Tyrosine decarboxylase (TDC, EC 4.1.1.25) of Lactobacillus brevis CGMCC 1.2028; domains in the structure span residues 7-618; also called holo-LbTDC; LbTDC/PLP complex; source: E. coli BL21(DE3) harboring pET24a-tdc, purified (Ni2+-agarose column); crystallized with PLP at a molar ratio of 1:4
As for B1, the “stoichiometry N” value in data set [1] worked out at 2.

B2: Lactobacillus brevis tyrosine decarboxylase, apo form (without PLP) (enzyme, Lactobacillus brevis CGMCC 1.2028)
chain: B1 chain
notes: Tyrosine decarboxylase (TDC, EC 4.1.1.25) of Lactobacillus brevis CGMCC 1.2028; domains in the structure span residues 7-618; A selenomethionine form was used only for phasing; also called apo-LbTDC; LbTDC; source: E. coli BL21(DE3) harboring pET24a-tdc, purified (Ni2+-agarose column)
Take B2: the “stoichiometry N” value in data set [2] was 2.
